Laboratory results taken from the supplement of paper PMC10567573.

B1: CPN1 (parent)
chain: RGVRRTASTPTPDDKLFQKLAKVY

Variants of: B1
Experiment: protein stability index of a GFP-peptide fusion (GPS, HEK-293T) (PSI 1-6); higher = more stable
Conditions: c terminus: a fixed tail appended
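Further: lentivirally expressed fusions sorted by FACS into six bins by GFP to DsRed ratio, PSI derived from sequencing read proportions per bin multiplied by bin number.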

Point of comparison: RGVRRTASTPTPDDKLFQKFAKVY [L20F], protein stability index 1.82. Against it:
- RGVRRTASTPTPDDKLFQKLAKPY [V23P] — higher, 3.51
- RGVRRTASTPTPDDKLFQKLAKCY [V23C] — higher, 2.58
- RGVRRTASTPTPDDKLFQKLAKKY [V23K] — higher, 2.96
- RGVRRTASTPTPDDKLFQKLAKMY [V23M] — higher, 1.9
- RGVRRTASTPTPDDKLFQKLAKDY [V23D] — higher, 3.02
- RGVRRTASTPTPDDKLFQKLAKQY [V23Q] — higher, 3.44
- RGVRRTASTPTPDDKLFQKLAKEY [V23E] — higher, 3.84
- RGVRRTASTPTPDDKLFQKLAKIY [V23I] — higher, 2.27
- RGVRRTASTPTPDDKLFQKLAKFY [V23F] — lower, 1.64
- RGVRRTASTPTPDDKLFQKLAKAY [V23A] — higher, 2.45
- RGVRRTASTPTPDDKLFQKLAKHY [V23H] — higher, 2.78
- RGVRRTASTPTPDDKLFQKLAKLY [V23L] — higher, 2.18
- RGVRRTASTPTPDDKLFQKLAKGY [V23G] — higher, 3.09
- RGVRRTASTPTPDDKLFQKLAKNY [V23N] — higher, 3.73
- RGVRRTASTPTPDDKLFQKLLKVY [A21L] — lower, 1.58
- RGVRRTASTPTPDDKLFQKLDKVY [A21D] — higher, 2.78
- RGVRRTASTPTPDDKLFQKLFKVY [A21F] — lower, 1.64
- RGVRRTASTPTPDDKLFQKLPKVY [A21P] — higher, 2.62
- RGVRRTASTPTPDDKLFQKLNKVY [A21N] — higher, 2.66
- RGVRRTASTPTPDDKLFQKLWKVY [A21W] — higher, 2.22
- RGVRRTASTPTPDDKLFQKLCKVY [A21C] — higher, 2.22
- RGVRRTASTPTPDDKLFQKLVKVY [A21V] — lower, 1.6
- RGVRRTASTPTPDDKLFQKLKKVY [A21K] — lower, 1.76
- RGVRRTASTPTPDDKLFQKLTKVY [A21T] — lower, 1.78
- RGVRRTASTPTPDDKLFQKLHKVY [A21H] — higher, 2.29
- RGVRRTASTPTPDDKLFQKLRKVY [A21R] — higher, 1.83
- RGVRRTASTPTPDDKLFQKLGKVY [A21G] — higher, 3.23
- RGVRRTASTPTPDDKLFQKLQKVY [A21Q] — higher, 2.48
- RGVRRTASTPTPDDKLFQKLYKVY [A21Y] — higher, 2.27
- RGVRRTASTPTPDDKLFQKLSKVY [A21S] — higher, 2.15
- RGVRRTASTPTPDDKLFQKLIKVY [A21I] — higher, 1.85
- RGVRRTASTPTPDDKLFQKLMKVY [A21M] — lower, 1.73
- RGVRRTASTPTPDDKLFQKLEKVY [A21E] — higher, 3.11
- RGVRRTASTPTPDDKLFQKLAFVY [K22F] — higher, 1.96
- RGVRRTASTPTPDDKLFQKLAHVY [K22H] — higher, 1.98
- RGVRRTASTPTPDDKLFQKLADVY [K22D] — higher, 1.95
- RGVRRTASTPTPDDKLFQKLAYVY [K22Y] — higher, 1.97
- RGVRRTASTPTPDDKLFQKLAWVY [K22W] — higher, 2.19
- RGVRRTASTPTPDDKLFQKLASVY [K22S] — higher, 1.93
- RGVRRTASTPTPDDKLFQKLAAVY [K22A] — higher, 2.19
- RGVRRTASTPTPDDKLFQKLARVY [K22R] — higher, 2.07
- RGVRRTASTPTPDDKLFQKLANVY [K22N] — higher, 2.4
- RGVRRTASTPTPDDKLFQKLACVY [K22C] — lower, 1.8
- RGVRRTASTPTPDDKLFQKLAQVY [K22Q] — lower, 1.7
- RGVRRTASTPTPDDKLFQKLAIVY [K22I] — lower, 1.45
- RGVRRTASTPTPDDKLFQKLAMVY [K22M] — higher, 2.04
- RGVRRTASTPTPDDKLFQKLAPVY [K22P] — higher, 2.37
- RGVRRTASTPTPDDKLFQKLATVY [K22T] — higher, 1.96
- RGVRRTASTPTPDDKLFQKLALVY [K22L] — higher, 2.73
- RGVRRTASTPTPDDKLFQKLAGVY [K22G] — higher, 2.82
- RGVRRTASTPTPDDKLFQKLAVVY [K22V] — higher, 2.14
- RGVRRTASTPTPDDKLFQKLAEVY [K22E] — higher, 1.87
- RGVRRTASTPTPDDKLFQKPAKVY [L20P] — higher, 3.58
- RGVRRTASTPTPDDKLFQKSAKVY [L20S] — higher, 3.7
- RGVRRTASTPTPDDKLFQKWAKVY [L20W] — higher, 2.58
- RGVRRTASTPTPDDKLFQKIAKVY [L20I] — higher, 1.92
- RGVRRTASTPTPDDKLFQKDAKVY [L20D] — higher, 4.06
- RGVRRTASTPTPDDKLFQKQAKVY [L20Q] — higher, 3.17
- RGVRRTASTPTPDDKLFQKTAKVY [L20T] — higher, 3.52
- RGVRRTASTPTPDDKLFQKVAKVY [L20V] — higher, 3.48
- RGVRRTASTPTPDDKLFQKEAKVY [L20E] — higher, 3.85
- RGVRRTASTPTPDDKLFQKNAKVY [L20N] — higher, 3.48
- RGVRRTASTPTPDDKLFQKYAKVY [L20Y] — higher, 2.4
- RGVRRTASTPTPDDKLFQKKAKVY [L20K] — higher, 3.68
- RGVRRTASTPTPDDKLFQKGAKVY [L20G] — higher, 3.86
- RGVRRTASTPTPDDKLFQKAAKVY [L20A] — higher, 3.4
- RGVRRTASTPTPDDKLFQKMAKVY [L20M] — higher, 2.23
- RGVRRTASTPTPDDKLFQKHAKVY [L20H] — higher, 3.22
- RGVRRTASTPTPDDKLFQKRAKVY [L20R] — higher, 3.3
- RGVRRTASTPTPDDKLFQKCAKVY [L20C] — higher, 2.56
- RGVRRTASTPTPDDKLFQQLAKVY [K19Q] — higher, 1.96
- RGVRRTASTPTPDDKLFQNLAKVY [K19N] — higher, 2.16
- RGVRRTASTPTPDDKLFQELAKVY [K19E] — higher, 2.54
- RGVRRTASTPTPDDKLFQTLAKVY [K19T] — higher, 1.98
- RGVRRTASTPTPDDKLFQYLAKVY [K19Y] — lower, 1.34
- RGVRRTASTPTPDDKLFQWLAKVY [K19W] — higher, 2.21
- RGVRRTASTPTPDDKLFQALAKVY [K19A] — lower, 1.62
- RGVRRTASTPTPDDKLFQDLAKVY [K19D] — higher, 2.67
- RGVRRTASTPTPDDKLFQHLAKVY [K19H] — higher, 2.12
- RGVRRTASTPTPDDKLFQFLAKVY [K19F] — higher, 2.53
- RGVRRTASTPTPDDKLFQLLAKVY [K19L] — higher, 2.36
- RGVRRTASTPTPDDKLFQGLAKVY [K19G] — higher, 2.21
- RGVRRTASTPTPDDKLFQRLAKVY [K19R] — higher, 2.49
- RGVRRTASTPTPDDKLFQPLAKVY [K19P] — higher, 2.93
- RGVRRTASTPTPDDKLFQVLAKVY [K19V] — higher, 2.1
- RGVRRTASTPTPDDKLFQSLAKVY [K19S] — lower, 1.74
- RGVRRTASTPTPDDKLFTKLAKVY [Q18T] — higher, 2.42
- RGVRRTASTPTPDDKLFWKLAKVY [Q18W] — lower, 1.37
- RGVRRTASTPTPDDKLFYKLAKVY [Q18Y] — lower, 1.78
- RGVRRTASTPTPDDKLFVKLAKVY [Q18V] — the same, 1.82
- RGVRRTASTPTPDDKLFPKLAKVY [Q18P] — higher, 2.7
- RGVRRTASTPTPDDKLFRKLAKVY [Q18R] — lower, 1.77
- RGVRRTASTPTPDDKLFSKLAKVY [Q18S] — higher, 2.09
